Assay [1] addresses natural Ara h 1 protein (peanut (Arachis hypogaea)). In words: native gel or EMSA; native-PAGE of the purified allergen, nondenaturing; oligomeric state from the estimated molecular mass (Fig. S1).
The target of assay [2] is recombinant Ara h 1 protein with N-terminal His-tag (peanut (Arachis hypogaea)). The description is as above.

“natural Ara h 1 protein (natural protein)”: the stoichiometry N in assay [1] was 3.

Regarding “recombinant Ara h 1 protein with N-terminal His-tag (natural protein)”, the stoichiometry N in assay [2] is 3.
